Blank lines part the entries; values can stand above or below the substance they belong to.
Columns and labels:
[1] = molecular target: CapH C-terminal domain (residues 67-107) with Ile99 to Met mutation, crystallised (E. coli MS115-1); assay: crystal structure
[2] = molecular target: CapH C-terminal domain (residues 67-107), crystallised (E. coli MS115-1); assay: crystal structure
[3] = molecular target: MBP-fused CapH (I99M) mutant (E. coli MS115-1); assay: SEC-MALS

stoichiometry N [1]: 2
Substance: CapH C-terminal domain (residues 67-107) with Ile99 to Met mutation, crystallised (domain or fragment)

stoichiometry N [2]: 4
Substance: CapH C-terminal domain (residues 67-107), crystallised (domain or fragment)

stoichiometry N [3]: 2
Substance: MBP-fused CapH (I99M) mutant (natural protein)
